These results are taken from article PMC5034320, “Modulation of yeast telomerase activity by Cdc13 and Est1 in vitro”.

One data set concerns the target T1, Cdc13-BD (Saccharomyces cerevisiae, UniProt P32797 451-693).
T1 sequence: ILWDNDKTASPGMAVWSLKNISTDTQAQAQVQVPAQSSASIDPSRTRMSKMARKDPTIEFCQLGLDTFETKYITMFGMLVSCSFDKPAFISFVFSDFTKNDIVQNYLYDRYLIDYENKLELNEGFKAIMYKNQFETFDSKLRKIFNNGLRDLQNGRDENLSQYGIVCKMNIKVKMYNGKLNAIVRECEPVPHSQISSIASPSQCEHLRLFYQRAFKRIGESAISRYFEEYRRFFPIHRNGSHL
In words: EMSA; 20-80 nM protein, 30 nM DNA; second BD molecule binds; EMSA: room temperature 5 min (30 C in Fig 5E), 30 nM DNA, 6% native gel, buffer not stated; DMS footprint: 50 mM cacodylate pH 7.0, 25 C 10 min, then 0.05% DMS. Particulars: protein: recombinant; tags: 6xHis; label: 5'-32P; single strand. (In EMSA bound probe runs differently from free probe, usually more slowly.)

The target in a further data set is T2, Cdc13 (Saccharomyces cerevisiae, UniProt P32797 1-924).
T2 sequence: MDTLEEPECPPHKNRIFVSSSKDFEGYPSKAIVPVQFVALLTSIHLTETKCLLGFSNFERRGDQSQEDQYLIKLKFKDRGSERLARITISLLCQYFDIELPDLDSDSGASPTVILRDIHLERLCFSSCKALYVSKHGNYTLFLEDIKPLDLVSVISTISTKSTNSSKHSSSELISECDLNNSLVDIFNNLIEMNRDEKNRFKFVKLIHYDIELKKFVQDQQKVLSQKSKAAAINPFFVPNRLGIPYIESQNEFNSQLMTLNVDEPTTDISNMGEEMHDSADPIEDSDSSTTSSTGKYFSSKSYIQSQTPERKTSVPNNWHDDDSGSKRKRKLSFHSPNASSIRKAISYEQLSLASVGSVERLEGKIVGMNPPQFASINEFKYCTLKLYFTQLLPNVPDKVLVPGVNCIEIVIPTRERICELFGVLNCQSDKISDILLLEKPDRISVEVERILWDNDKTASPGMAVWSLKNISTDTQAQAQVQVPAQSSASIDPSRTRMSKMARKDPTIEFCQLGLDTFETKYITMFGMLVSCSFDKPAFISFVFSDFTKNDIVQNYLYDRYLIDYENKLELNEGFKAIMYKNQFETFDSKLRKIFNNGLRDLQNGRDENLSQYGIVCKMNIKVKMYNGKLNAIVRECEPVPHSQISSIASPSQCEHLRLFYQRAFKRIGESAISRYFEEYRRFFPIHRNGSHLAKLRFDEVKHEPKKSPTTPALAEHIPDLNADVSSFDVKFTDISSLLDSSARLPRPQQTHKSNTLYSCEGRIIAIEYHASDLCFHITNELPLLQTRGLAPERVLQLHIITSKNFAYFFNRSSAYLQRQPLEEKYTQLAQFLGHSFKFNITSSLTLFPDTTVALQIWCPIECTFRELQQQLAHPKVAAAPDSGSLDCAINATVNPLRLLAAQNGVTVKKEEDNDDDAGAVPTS
Nature of the data set: EMSA; 20-80 nM Cdc13, 30 nM DNA; EMSA: room temperature 5 min (30 C in Fig 5E), 30 nM DNA, 6% native gel, buffer not stated; DMS footprint: 50 mM cacodylate pH 7.0, 25 C 10 min, then 0.05% DMS. Particulars: protein: recombinant, tags: 6xHis.

A further data set addresses T3, Est1-TAP (Saccharomyces cerevisiae, UniProt P17214 1-699).
T3 sequence: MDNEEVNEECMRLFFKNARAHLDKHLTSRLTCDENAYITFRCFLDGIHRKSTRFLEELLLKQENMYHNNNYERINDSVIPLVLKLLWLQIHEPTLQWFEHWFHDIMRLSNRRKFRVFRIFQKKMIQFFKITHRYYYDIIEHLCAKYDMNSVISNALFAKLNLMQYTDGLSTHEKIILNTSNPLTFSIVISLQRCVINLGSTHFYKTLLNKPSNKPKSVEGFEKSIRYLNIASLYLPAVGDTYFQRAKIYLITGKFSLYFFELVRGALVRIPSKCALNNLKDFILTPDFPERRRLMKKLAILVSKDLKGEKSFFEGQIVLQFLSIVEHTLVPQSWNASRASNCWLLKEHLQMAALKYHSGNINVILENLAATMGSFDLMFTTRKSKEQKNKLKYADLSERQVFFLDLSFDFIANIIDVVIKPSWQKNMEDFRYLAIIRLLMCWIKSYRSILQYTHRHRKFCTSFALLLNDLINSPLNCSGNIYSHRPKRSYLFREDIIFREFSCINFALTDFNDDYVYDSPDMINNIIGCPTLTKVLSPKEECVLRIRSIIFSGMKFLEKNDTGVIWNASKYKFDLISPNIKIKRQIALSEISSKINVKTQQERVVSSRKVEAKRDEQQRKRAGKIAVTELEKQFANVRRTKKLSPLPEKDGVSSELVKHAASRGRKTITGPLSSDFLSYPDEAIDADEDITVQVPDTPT
In words: EMSA; Est1-TAP alone; no stable complex; EMSA: room temperature 5 min (30 C in Fig 5E), 30 nM DNA, 6% native gel, buffer not stated; DMS footprint: 50 mM cacodylate pH 7.0, 25 C 10 min, then 0.05% DMS. The note with it: protein: recombinant; label: 5'-32P on T21; 3' overhang 15 nt (T21 strand).

A further data set addresses T4, Cdc13-2 (Saccharomyces cerevisiae, UniProt P32797 1-924, E252K).
T4 sequence: T2 sequence with E252K
Nature of the data set: EMSA; affinity similar to wild-type Cdc13; EMSA: room temperature 5 min (30 C in Fig 5E), 30 nM DNA, 6% native gel, buffer not stated; DMS footprint: 50 mM cacodylate pH 7.0, 25 C 10 min, then 0.05% DMS. The note with it: protein: recombinant; tags: 6xHis; chain copies: 2; label: 5'-32P on T21; 3' overhang 15 nt (T21 strand).

Numbering of substitutions follows the chain as printed.

ATGGCTAGGTAGCCGAATTGCGTAGGTGGGTGTGGTGTGTGTGGG (ssDNA) [T21]: the binding result is listed as “binds” with Cdc13-BD and “binds” with Cdc13 (label: 5'-32P, single strand).

B1: T21/C20 tailed duplex (mixed)
DNA 1: ATGGCTAGGTAGCCGAATTGCGTAGGTGGGTGTGGTGTGTGTGGG
DNA 2: CCCACCTACGCAATTCGGCTACCTAGCCAT
modifications: 3'-NH2 on C20
For the molecule B1, the binding result is on record as “no binding” in the data set with Est1-TAP; “binds” in the data set with Cdc13 (chain copies: 2, label: 5'-32P on T21, 3' overhang 15 nt (T21 strand)); “binds” with Cdc13-2.
